This is an account of results in publication PMC10746276, “CsrA coordinates the expression of ribosome hibernation and anti-σ factor proteins”.

Data set [1] addresses T1, CsrA-His6 (Escherichia coli, UniProt P69913 1-61). As to the kind of experiment: EMSA; EMSA: 0.1 nM RNA, 10 mM MgCl2, 100 mM KCl, 32.5 ng yeast RNA, 20 mM DTT, 7.5% glycerol, 4 U SUPERasin, 30 min 37 C (pH not given); footprint: 2 nM RNA, 10 mM Tris-HCl pH 7.5, 10 mM MgCl2, 100 mM KCl, yeast RNA, acetylated BSA, 37 C. The note with it: protein: recombinant; tags: His6 (C-terminal by name); chain copies: 2; label: 5'-32P.

The target of data set [2] is T1, CsrA-His6. As to the kind of experiment: EMSA; side-by-side with A(-15)G; differs from 95 nM in Fig. 6, RNA may differ; EMSA: 0.1 nM RNA, 10 mM MgCl2, 100 mM KCl, 32.5 ng yeast RNA, 20 mM DTT, 7.5% glycerol, 4 U SUPERasin, 30 min 37 C (pH not given); footprint: 2 nM RNA, 10 mM Tris-HCl pH 7.5, 10 mM MgCl2, 100 mM KCl, yeast RNA, acetylated BSA, 37 C. Particulars: protein: recombinant; tags: His6 (C-terminal by name); chain copies: 2; label: 5'-32P.

The target of data set [3] is T1, CsrA-His6. As to the kind of experiment: EMSA; no effect on affinity vs WT; EMSA: 0.1 nM RNA, 10 mM MgCl2, 100 mM KCl, 32.5 ng yeast RNA, 20 mM DTT, 7.5% glycerol, 4 U SUPERasin, 30 min 37 C (pH not given); footprint: 2 nM RNA, 10 mM Tris-HCl pH 7.5, 10 mM MgCl2, 100 mM KCl, yeast RNA, acetylated BSA, 37 C. Particulars: protein: recombinant; tags: His6 (C-terminal by name); chain copies: 2; label: 5'-32P.

Data set [4] addresses T1, CsrA-His6. As to the kind of experiment: EMSA; Hill coefficient 4.5; EMSA: 0.1 nM RNA, 10 mM MgCl2, 100 mM KCl, 32.5 ng yeast RNA, 20 mM DTT, 7.5% glycerol, 4 U SUPERasin, 30 min 37 C (pH not given); footprint: 2 nM RNA, 10 mM Tris-HCl pH 7.5, 10 mM MgCl2, 100 mM KCl, yeast RNA, acetylated BSA, 37 C. Particulars: protein: recombinant; tags: His6 (C-terminal by name); chain copies: 2; label: 5'-32P; hairpin (mFold). (Mobility shift assays separate free from complexed probe on a gel.)

Substitutions are numbered along the chain they refer to.

T1 sequence (P69913 whole entry): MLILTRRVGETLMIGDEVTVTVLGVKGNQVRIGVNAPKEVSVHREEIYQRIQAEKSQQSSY

B1: yqjC leader WT (ssRNA)
RNA: GGGCGGUGGUUAACACUACCGCUUCGUUGUCUGGACAAUCGUUCCUUUGUAAUAGGUCCGAAUCACAAUGGAAGGUUCAAGAAUGAAAUACCGCAUCGCUUUAGCUGUU
Take B1: the results for the Kd with CsrA-His6 [1] and with CsrA-His6 [2] were 95 ± 7 nM and 15 ± 9 nM, respectively.

B2: yqjC leader GGA1 mutant (GGA to AAA) (ssRNA)
RNA: B1 RNA with G33A, G34A
For the molecule B2, the binding result with CsrA-His6 [3] is on record as “binds”.

Regarding GCGCAGGAAGAGCUGAAAAAGCUGGAAGCGC (structured_RNA) [yqjD BS2-BS3 fragment WT], in the data set with CsrA-His6 [4], the Kd – broadly, the free concentration of one partner at which half of the binding sites on the other are occupied at equilibrium, for simple one-to-one binding – stood at 89 ± 6 nM.

Turning to GGGUUUUACGCAAAUCCAGAACGAGAAUGUCUAAUCAG (ssRNA) [elaB leader GGA to CCA], in the data set with CsrA-His6 [1], the binding result is listed as “no binding”.

Turning to GGGUUUUACGCAAAUGGAGAACGAGAAUGUCUAAUCAG (ssRNA) [elaB leader WT], the Kd with CsrA-His6 [1] worked out at 20 ± 8 nM.
